Results published in PMC9399903 (Nature structural & molecular biology, 2022).

Key:
[1] = biological target: wild-type yeast core particle (CP, 20S proteasome) (S. cerevisiae (endogenous in yeast)) (UniProt P23639)
SEC = biological target: the molecule itself; experiment: SEC

Chain of wild-type yeast core particle (CP, 20S proteasome) (S. cerevisiae (endogenous in yeast)) (P23639 whole entry, looked up): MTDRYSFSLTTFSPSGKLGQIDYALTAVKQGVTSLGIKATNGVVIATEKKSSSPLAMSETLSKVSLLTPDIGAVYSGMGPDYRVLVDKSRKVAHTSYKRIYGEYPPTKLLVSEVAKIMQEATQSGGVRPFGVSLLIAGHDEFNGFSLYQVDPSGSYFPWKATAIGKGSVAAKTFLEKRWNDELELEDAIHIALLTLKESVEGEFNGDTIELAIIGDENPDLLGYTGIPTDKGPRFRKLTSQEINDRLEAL

B1: Fub1 (S. cerevisiae PI31), endogenous untagged (natural protein, UniProt P25659 1-250, looked up)
chain: MIENKVELVAELVLESIGKTEVVSRHTEGTKSCQVSFRIKDSPSEKGSTSFLSELVVIQTLDDNDKYTVVIRHGTSITMACVVGYSDFKLPTELKWPLERESLPVEPDLKPIMTQLKRQTAGSADMPKFDDEYQAQARQNQGTAPLNPYPGLTVTEPSFANPAGGYADGDLYPVGTSHPDWSGGLPNPLGNPSSQGGMIFDPNRRPAPRREDMPPGWMPGSKYDEPFGPGSGGFGGSGSGGFGGSGSGFI
inhibition of CP peptidase activity at 2-fold molar excess of Fub1 [1]: 50% | stoichiometry N (SEC): 2
